Experimental data as given in patent US20240279288A1, “APPLICATION OF PLANT JAZ PROTEINS AND DERIVED POLYPEPTIDES IN PREVENTION AND TREATMENT OF HUMAN AND ANIMAL TUMORS” (ANYANG INSTITUTE OF SINO-COTTON INDUSTRY INNOVATION, priority 2021, published 2024).

B1: GhJAZ1: cotton JAZ1 protein, gene number Gh_A05G0260, sequence SEQ ID No. 4; prokaryotically expressed with His tag, about 30 KD (protein)
chain: MSSCSESTAMKPARSPEKPSFAQTCNLLSQYLKEKGSFGDLSLGMTCNVEANGTPVVPPPTMNLFPLNDKSDDVCGRNGGNPKNLTSMDLFPQQAGLASKDDSPNKLEPQTAPMTIFYGGQVIVFNDFPANKAKEIMLLASNSSSQSNNSFNPIPFTSSIARSPIESSIGVPPTSKPVHPAQRAVPGDLPIARRASLHRFLEKRKDRITAKAPYQINNSAAAPSLSGDNKSWLGLAAQSP
modifications: His tag
notes: prokaryotically expressed with His tag, about 30 KD
B2: GhJAZ1 after deletion of NT domain: GhJAZ1 mutant with NT domain deleted, protein sequence SEQ ID No. 83 (protein)
chain: MSSCSESTAMKPARSPEANGTPVVPPPTMNLFPLNDKSDDVCGRNGGNPKNLTSMDLFPQQAGLASKDDSPNKLEPQTAPMTIFYGGQVIVFNDFPANKAKEIMLLASNSSSQSNNSFNPIPFTSSIARSPIESSIGVPPTSKPVHPAQRAVPGDLPIARRASLHRFLEKRKDRITAKAPYQINNSAAAPSLSGDNKSWLGLAAQSP

Target: uPAR (Homo sapiens, UniProt Q03405)
Assay: Yeast two hybrid with uPAR
Assay type: binding
Set-up: the CDS of the above genes was subcloned to pGADT7 (YouBio, VT1639); expressed in transfected cells; host or cells: yeast Y2HGold
Text: […]
In order to explore how GhJAZ1 enters cancer cells, we cloned the genes of most tumor surface receptors, including uPAR (NCBI database accession number of NM_002659.4), CCK1R (NP_000721.1), CCK2R (NP_001350481.1), HER2 (NP_004439.2), GRPR (NP_005305.1), MUC1 (NP_001358649.1), VEGFR1 (NP_002010.2), Insulin receptor (NM_000208.4), NTR (XM_011528827.2), PSMA (XM_017017432.1), TFR1 (NM_001128148.3), TFR2 (NM_003227.4), PEPT1 (NM_005073.4), APN (NM_001150.3). […] We detected the interaction of GhJAZ1 with uPA (as the ligand of uPAR, NCBI database accession number of NP_002649.2) and uPAR by yeast two hybrid (the steps of the experiment as Example 3). […]

Chain of uPAR (Q03405 23-305): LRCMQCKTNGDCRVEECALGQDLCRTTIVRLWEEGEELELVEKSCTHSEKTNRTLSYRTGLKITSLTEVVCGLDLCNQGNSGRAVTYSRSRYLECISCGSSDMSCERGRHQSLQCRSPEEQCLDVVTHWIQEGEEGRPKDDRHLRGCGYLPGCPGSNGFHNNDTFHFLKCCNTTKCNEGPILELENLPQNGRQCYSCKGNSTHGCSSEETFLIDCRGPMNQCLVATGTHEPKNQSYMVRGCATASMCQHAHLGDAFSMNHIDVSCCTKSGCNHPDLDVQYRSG

Molecule	interaction with uPAR
B1	interacted
B2	significantly weakened
